Eight molecules from patent US20140286898A1 (Amgen, published 2014) can be followed below.

To fix the notation:
T1: CD25 (IL-2Rα) on the surface of activated T cells (UniProt P01589 22-272, limits assumed)
T1 construct: whole, on cells; also called cell surface CD25
T1 sequence (looked up): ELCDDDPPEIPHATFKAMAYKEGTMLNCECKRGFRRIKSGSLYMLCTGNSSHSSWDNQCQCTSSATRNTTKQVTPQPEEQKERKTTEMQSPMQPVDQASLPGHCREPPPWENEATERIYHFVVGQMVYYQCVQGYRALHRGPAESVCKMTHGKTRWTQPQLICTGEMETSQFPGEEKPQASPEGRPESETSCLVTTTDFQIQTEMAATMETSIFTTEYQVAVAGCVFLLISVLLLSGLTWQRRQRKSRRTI

B1: HaMut1D (V69A, Q74P, N88D, C125A) (ligand)
chain: APTSSSTKKTQLQLEHLLLDLQMILNGINNYKNPKLTRMLTFKFYMPKKATELKHLQCLEEELKPLEEALNLAPSKNFHLRPRDLISDINVIVLELKGSETTFMCEYADETATIVEFLNRWITFAQSIISTLT
notes: IL-2 mutein without Fc; not shown: C-terminal FLAG and poly-His tag
B2: HaMut6D (E68D, V69A, Q74P, N88D, C125A) (ligand)
chain: APTSSSTKKTQLQLEHLLLDLQMILNGINNYKNPKLTRMLTFKFYMPKKATELKHLQCLEEELKPLEDALNLAPSKNFHLRPRDLISDINVIVLELKGSETTFMCEYADETATIVEFLNRWITFAQSIISTLT
notes: not shown: C-terminal FLAG and poly-His tag
B3: HaMut7D (N71R, V69A, Q74P, N88D, C125A) (ligand)
chain: APTSSSTKKTQLQLEHLLLDLQMILNGINNYKNPKLTRMLTFKFYMPKKATELKHLQCLEEELKPLEEALRLAPSKNFHLRPRDLISDINVIVLELKGSETTFMCEYADETATIVEFLNRWITFAQSIISTLT
notes: as for B2
B4: HaMut5D (K48E, V69A, Q74P, N88D, C125A) (ligand)
chain: APTSSSTKKTQLQLEHLLLDLQMILNGINNYKNPKLTRMLTFKFYMPEKATELKHLQCLEEELKPLEEALNLAPSKNFHLRPRDLISDINVIVLELKGSETTFMCEYADETATIVEFLNRWITFAQSIISTLT
notes: as for B2
B5: HaMut4D (T37A, V69A, Q74P, N88D, C125A) (ligand)
chain: APTSSSTKKTQLQLEHLLLDLQMILNGINNYKNPKLARMLTFKFYMPKKATELKHLQCLEEELKPLEEALNLAPSKNFHLRPRDLISDINVIVLELKGSETTFMCEYADETATIVEFLNRWITFAQSIISTLT
notes: as for B2
B6: HaMut8D (K35R, K48E, E68D, N88D, C125A) (ligand)
chain: APTSSSTKKTQLQLEHLLLDLQMILNGINNYKNPRLTRMLTFKFYMPEKATELKHLQCLEEELKPLEDVLNLAQSKNFHLRPRDLISDINVIVLELKGSETTFMCEYADETATIVEFLNRWITFAQSIISTLT
notes: as for B2
B7: HaMut3D (K35R, V69A, Q74P, N88D, C125A) (ligand)
chain: APTSSSTKKTQLQLEHLLLDLQMILNGINNYKNPRLTRMLTFKFYMPKKATELKHLQCLEEELKPLEEALNLAPSKNFHLRPRDLISDINVIVLELKGSETTFMCEYADETATIVEFLNRWITFAQSIISTLT
notes: as for B2
B8: HaMut2D (N30S, V69A, Q74P, N88D, C125A) (ligand)
chain: APTSSSTKKTQLQLEHLLLDLQMILNGINSYKNPKLTRMLTFKFYMPKKATELKHLQCLEEELKPLEEALNLAPSKNFHLRPRDLISDINVIVLELKGSETTFMCEYADETATIVEFLNRWITFAQSIISTLT
notes: as for B2

The test has as its target T1, CD25 (IL-2Rα) on the surface of …. Kind of test: flow cytometry, binding to CD25 on the surface of activated T cells.
In turn, B1 displayed a Kd of about 2 nM.

In the case of B2, the binding result is given as “binds”.

For the molecule B3, the Kd was about 0.2 nM.

In the case of B4, the binding result is on record as “binds”.

Consider B5, for which the binding result is “binds”.

Regarding B6, the binding result is reported as “binds”.

Take B7: the binding result is reported as “binds”.

Turning to B8, the binding result was “binds”.
